# Paper PMC8896826, “Cellular assays identify barriers impeding iron-sulfur enzyme activity in a non-native prokaryotic host” (eLife, 2022)
# T1: tryptophan 2-C-methyltransferase (TsrM) from Streptomyces laurentii (Streptomyces laurentii, UniProt C0JRZ9 1-599)
# T1 construct: TsrM, tryptophan 2-C-methyltransferase of the thiostrepton synthesis pathway, Streptomyces laurentii; As purified it holds 0.9 cobalamin and 3.5 Fe per monomer ([4Fe-4S] cluster); The methods describe no TEV cleavage for TsrM, so the His-tag was probably still on the protein; also called cobalamin-dependent rSAM methyltransferase TsrM; source: E. coli BL21(DE3), coexpressed with the Btu operon, …
# T1 sequence (looked up): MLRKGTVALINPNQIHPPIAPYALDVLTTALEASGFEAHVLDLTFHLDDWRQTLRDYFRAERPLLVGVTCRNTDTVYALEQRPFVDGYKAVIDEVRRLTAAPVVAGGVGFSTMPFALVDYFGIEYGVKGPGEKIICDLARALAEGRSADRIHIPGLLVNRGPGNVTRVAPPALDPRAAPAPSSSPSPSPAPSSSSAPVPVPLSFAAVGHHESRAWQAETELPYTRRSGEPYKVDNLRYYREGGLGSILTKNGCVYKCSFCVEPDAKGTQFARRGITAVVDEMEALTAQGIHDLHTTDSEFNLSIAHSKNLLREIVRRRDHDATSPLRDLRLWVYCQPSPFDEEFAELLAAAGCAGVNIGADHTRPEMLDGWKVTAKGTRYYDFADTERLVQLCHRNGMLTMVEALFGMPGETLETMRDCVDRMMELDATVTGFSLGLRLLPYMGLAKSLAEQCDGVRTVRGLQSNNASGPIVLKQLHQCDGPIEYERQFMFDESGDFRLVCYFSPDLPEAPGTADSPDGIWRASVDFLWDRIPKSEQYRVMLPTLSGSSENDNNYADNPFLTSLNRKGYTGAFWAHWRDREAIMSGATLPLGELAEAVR
# B1: Streptomyces cattleya ferredoxin Fdx1 (natural protein, UniProt F8K3M7 1-106, looked up)
# chain: MTYVIAQPCVDVKDKACIEECPVDCIYEGQRSLYIHPDECVDCGACEPVCPVEAIFYEDDTPEEWKDYYKANVEFFDELGSPGGASKLGLIERDHPFIAALPPQNG
# modifications: biotin (incubation with one equivalent of NHS-PEG4-Biotin)
# notes: ferredoxin Fdx1 of Streptomyces cattleya, GenBank AEW96347.1; 7.4 Fe atoms per monomer after reconstitution (two [4Fe-4S] clusters); also called double-cluster [4Fe-4S] ferredoxin; not shown: His-tag, N-terminal, cleaved
# Molecular target: T1, tryptophan 2-C-methyltransferase (TsrM) …
# Experiment: BLI; biotinylated ferredoxins (10 µg/mL) bound to streptavidin biosensors, plunged into TsrM solution at various concentrations (80 s association, 60 s dissociation); BLItz system in an anaerobic chamber (O2 <2 ppm); 25 mM Hepes pH 7.5, 300 mM KCl, 5% glycerol with Tween 20 and BSA
# Conditions: both partners purified
binder,measurement,value
B1,Kd,40 µM
